Experimental data from patent US20090317890.

Target: T1, human fibrin (clot formed from human fibrinogen, Sigma, with human thrombin), P02671
T1 chain 1: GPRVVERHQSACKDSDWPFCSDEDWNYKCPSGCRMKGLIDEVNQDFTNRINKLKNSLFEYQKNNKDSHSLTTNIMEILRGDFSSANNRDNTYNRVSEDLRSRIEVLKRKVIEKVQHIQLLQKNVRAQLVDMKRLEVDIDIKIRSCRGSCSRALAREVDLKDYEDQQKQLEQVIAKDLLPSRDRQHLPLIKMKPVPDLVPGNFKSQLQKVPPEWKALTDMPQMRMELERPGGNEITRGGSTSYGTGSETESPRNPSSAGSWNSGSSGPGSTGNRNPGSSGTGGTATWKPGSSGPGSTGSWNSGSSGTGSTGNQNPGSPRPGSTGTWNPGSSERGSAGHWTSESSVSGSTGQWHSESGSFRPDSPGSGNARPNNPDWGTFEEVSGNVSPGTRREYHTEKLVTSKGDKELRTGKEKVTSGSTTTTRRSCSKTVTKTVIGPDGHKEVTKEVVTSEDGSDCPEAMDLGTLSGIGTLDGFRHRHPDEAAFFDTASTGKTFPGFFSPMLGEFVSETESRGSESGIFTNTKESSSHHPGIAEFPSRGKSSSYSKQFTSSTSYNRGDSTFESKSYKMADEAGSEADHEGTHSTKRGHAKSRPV
T1 chain 2: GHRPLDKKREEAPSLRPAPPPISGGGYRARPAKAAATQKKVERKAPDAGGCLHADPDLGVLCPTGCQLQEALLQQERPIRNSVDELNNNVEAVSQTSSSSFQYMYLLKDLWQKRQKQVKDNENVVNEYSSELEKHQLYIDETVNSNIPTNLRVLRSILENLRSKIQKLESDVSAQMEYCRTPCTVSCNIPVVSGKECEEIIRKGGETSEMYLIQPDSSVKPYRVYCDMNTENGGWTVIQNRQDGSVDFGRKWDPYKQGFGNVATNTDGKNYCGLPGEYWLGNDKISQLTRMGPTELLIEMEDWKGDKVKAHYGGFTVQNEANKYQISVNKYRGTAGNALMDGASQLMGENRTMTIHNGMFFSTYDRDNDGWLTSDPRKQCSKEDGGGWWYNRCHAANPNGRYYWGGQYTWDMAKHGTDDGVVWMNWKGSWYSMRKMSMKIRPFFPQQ
T1 chain 3: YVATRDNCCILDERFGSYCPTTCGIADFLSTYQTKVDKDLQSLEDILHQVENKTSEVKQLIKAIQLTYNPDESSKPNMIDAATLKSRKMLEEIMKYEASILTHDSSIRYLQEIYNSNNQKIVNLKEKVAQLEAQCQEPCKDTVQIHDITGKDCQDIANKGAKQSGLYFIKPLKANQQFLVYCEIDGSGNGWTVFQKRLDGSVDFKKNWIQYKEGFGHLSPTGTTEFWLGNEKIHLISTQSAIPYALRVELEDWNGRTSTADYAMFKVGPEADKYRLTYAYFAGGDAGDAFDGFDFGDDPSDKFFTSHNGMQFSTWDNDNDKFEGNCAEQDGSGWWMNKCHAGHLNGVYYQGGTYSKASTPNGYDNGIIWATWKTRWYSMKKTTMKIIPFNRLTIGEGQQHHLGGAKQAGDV

B1: recombinant zinc-dependent metalloprotease (fibrinolytic protease from metagenomic clone pES63H9) (protein)
chain: MEPEPIKTCTVLENPGYQPIHAPTDVSPQPVLAAMEAVPVPTPPPTVDAVMLFRKKWRDGKILRVHFMDGDPDVHRKVEEVAHTWSRHANVRFKFVDDPAADIRISFTQPGSWSYLGTDALRIARSQSTMNFGWLTPRSPDSEYNRVVIHEFGHALGLVHEHQNPDNGIPWNKPAVYEYYSGPPNNWSKEQVDTNLFQQYSEDQVRFTGFDRESIMLYPIPNEFTVGDFEVGWNRDLSADDKEFIGRMYPKPANELIVDDPPRASEISRYGEIDTYTFLVTQKGSYRIETDGRTDLVMLLYGPEDDTKLIAADDDSGRRLNPRITEELDWGKYTVRLQHFSQRQTGKYAVGVYRDDAAE
hydrolysis of the fibrin α-chain, SDS-PAGE time course at 37° C.: the purified enzyme completely hydrolyzed the α-chain and the γ-γ-chain at 37 °C after 1 h | hydrolysis of the fibrin β-chain, SDS-PAGE time course at 37° C.: The enzyme also partially hydrolyzed the β-chain after 30 min; however, it was not completely hydrolyzed after 2 h and even after 24 h (data not shown) | hydrolysis of the fibrin γ-γ-chain, SDS-PAGE time course at 37° C.: the purified enzyme completely hydrolyzed the α-chain and the γ-γ-chain at 37 °C after 1 h
